The results in this text go back to patent US20190367631A1 (Regeneron, published 2019).

T1: human MSR1 extracellular domain expressed with a N-terminal nonahistidine tag (His9-hMSR1); R&D Systems, Cat … (human, UniProt P21757 77-451)
T1 construct: extracellular domain; Bought reagent; also called His-hMSR1; 9xHis-hMSR1
T1 sequence: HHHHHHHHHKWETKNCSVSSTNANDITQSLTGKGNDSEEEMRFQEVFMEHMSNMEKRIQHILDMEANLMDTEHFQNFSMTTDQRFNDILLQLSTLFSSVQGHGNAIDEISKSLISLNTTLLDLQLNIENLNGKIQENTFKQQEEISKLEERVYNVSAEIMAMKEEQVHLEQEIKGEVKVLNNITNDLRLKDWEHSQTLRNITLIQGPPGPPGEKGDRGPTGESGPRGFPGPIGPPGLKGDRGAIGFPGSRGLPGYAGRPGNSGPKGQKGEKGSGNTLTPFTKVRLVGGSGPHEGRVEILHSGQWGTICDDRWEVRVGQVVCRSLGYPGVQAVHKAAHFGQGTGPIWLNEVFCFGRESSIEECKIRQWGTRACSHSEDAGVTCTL

B1: H1H27760P-N297Q (antibody, human IgG1, V domains shown)
VH: EVQLVESGGGLVQPGRSLRLSCAASGFTFDAYAMHWVRQAPGKGLEWVSGISWNSGSIGYADSVKGRFTISRDNAKNSLYLQMNSLREEDTALYYCAKDKILELYYYGMDVWGQGTTVTVSS
VL: not shown
notes: human IgG1 Fc with N297Q (EU); also called H1H27760P2-N297Q
B2: H1H27760P-N297Q-LP1 (antibody, human IgG1, V domains shown)
VH: B1 VH
VL: not shown
modifications: LXR agonist linker-payload LP1 clicked to azido-PEG3-amine on Q295 and Q297 (EU) of the heavy chain constant region
notes: antibody-drug conjugate; human IgG1 Fc with N297Q (EU)
B3: H1H27756P-N297Q (antibody, human IgG1, V domains shown)
VH: QVQLVESGGGVVQPGRSLRLSCAASGFTFSNYDMHWVRQAPGKGLEWMAVISYDGINKYYADSVKGRFTISRDNSKNTLYLQMNSLRAEDTAVYYCAKGTYSWYFDLWGRGTLVTVSS
VL: not shown
notes: human IgG1 Fc with N297Q (EU)
B4: H1H27756P-N297Q-LP1 (antibody, human IgG1, V domains shown)
VH: B3 VH
VL: not shown
modifications: LXR agonist linker-payload LP1 clicked to azido-PEG3-amine on Q295 and Q297 (EU) of the heavy chain constant region
notes: antibody-drug conjugate; human IgG1 Fc with N297Q (EU); also called H1H27756P-LP1
B5: H1H27747P-N297Q-LP1 (antibody, human IgG1, V domains shown)
VH: QVQLVESGGAVVQPGRSLRLSCAASGFTFSYYGMHWVRQAPGKGLEWVAVISYDGSKKYYADSVKGRFTISRDNSKNTLYLQMNSLRAEDTAVYYCAKDLTVDFYYGMDVWGQGTTVTVSS
VL: DIQMTQSPSSVSASVGDRVTITCRASQGISSWLAWYQQKPGKAPKLLIYATSSLQSGAPSRFSGSGSGTDFTLTISSLQPEDFATYFCQQANSFPYTFGQGTKLEIKR
modifications: LXR agonist linker-payload LP1 clicked to azido-PEG3-amine on Q295 and Q297 (EU) of the heavy chain constant region
notes: antibody-drug conjugate; human IgG1 Fc with N297Q (EU); also called H1H27747P-LP1
B6: H1H27759P-N297Q (antibody, human IgG1, V domains shown)
VH: EVQLVESGGGFVQPGGSLRLSCAASGFTFSSYAMSWVRQAPGKGLEWVSAISGTGSNTYYADSVKGRFTISRDNSKNTLYLQMNSLRAEDTAVYYCAKDRVTTVTYYFDYWGQGTLVTVSS
VL: not shown
notes: human IgG1 Fc with N297Q (EU); also called H1H27759P2-N297Q
B7: H1H27759P-N297Q-LP1 (antibody, human IgG1, V domains shown)
VH: B6 VH
VL: not shown
modifications: LXR agonist linker-payload LP1 clicked to azido-PEG3-amine on Q295 and Q297 (EU) of the heavy chain constant region
notes: as for B2
B8: H1H27749P-N297Q-LP1 (antibody, human IgG1, V domains shown)
VH: QVQLQESGPGLVKPSETLSLTCTVSDGSISSYYWSWIRQPPGRGLEWIGFIYYSGSTSYNPSLKSRVTISVDTSMSQFSLKLRSVTAADTAVYYCARGSPFDYWGPGTLVTVSS
VL: EIVLTQSPGTLSLSPGERATLSCRASQSVSSSYLAWYQQRPGQAPSLLISGASRRATGIPDRFSGSGSGTDFTLTIRRLEPEDFAMYYCQQYGSSPPTFGGGTKVEIKR
modifications: LXR agonist linker-payload LP1 clicked to azido-PEG3-amine on Q295 and Q297 (EU) of the heavy chain constant region
notes: antibody-drug conjugate; human IgG1 Fc with N297Q (EU); also called H1H27749P-LP1
B9: H1H27751P-N297Q (antibody, human IgG1, V domains shown)
VH: EVQLVESGGGLVQPGGSLRLSCAASGFTFSNYAMHWVRQAPGKGLEYVSAISSNGGSTYYADSVKGRITISRDNSKNTLYLQMGSLRAEDMAVYYCARGRPYYYYFGMDVWGQGTTVTVSS
VL: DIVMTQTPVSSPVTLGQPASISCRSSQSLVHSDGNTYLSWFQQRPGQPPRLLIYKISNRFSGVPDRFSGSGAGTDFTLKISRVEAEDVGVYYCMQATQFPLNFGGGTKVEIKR
notes: human IgG1 Fc with N297Q (EU)
B10: H1H27751P-N297Q-LP1 (antibody, human IgG1, V domains shown)
VH: B9 VH
VL: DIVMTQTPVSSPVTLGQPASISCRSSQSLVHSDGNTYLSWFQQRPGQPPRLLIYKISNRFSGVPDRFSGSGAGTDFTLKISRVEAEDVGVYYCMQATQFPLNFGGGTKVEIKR
modifications: LXR agonist linker-payload LP1 clicked to azido-PEG3-amine on Q295 and Q297 (EU) of the heavy chain constant region
notes: as for B2

The assay addresses T1, human MSR1 extracellular domain …. The assay is described as follows: SPR Biacore T200, 25 C, antibody captured by anti-human Fc, His9-hMSR1 injected.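 Also: running buffer HBS-ET pH 7.4, rates from sensorgrams fitted to a 1:1 model including mass transport limitation, KD and half-life derived from the kinetic constants.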
Procedure: All binding studies were performed in 10 mM HEPES, 300 mM NaCl, 3 mM EDTA, and 0.05% v/v Surfactant Tween-20, pH 7.4 (HBS-ET) running buffer at 25° C.
The association rate (kₐ) and dissociation rate (kd) were determined by fitting the real-time binding sensorgrams to a 1:1 binding model with mass transport limitation using Scrubber 2.0c curve-fitting software. Binding dissociation equilibrium constant (KD) and dissociative half-life (t½) were calculated from the kinetic rates as:
B1: the equilibrium dissociation constant (Kd) was determined as 1.66 nM and the t½ worked out at 30.2 min.
B2 came in with an equilibrium dissociation constant (Kd) of 1.67 nM, a koff of 0.000434 s⁻¹, a kon of 259000 M⁻¹ s⁻¹ and a t½ of 26.6 min.
B3 displayed a Kd of 1.65 nM and a t½ of 97.4 min.
B4 yielded a Kd of 1.76 nM, a koff of 0.00011 s⁻¹, a kon of 62700 M⁻¹ s⁻¹ and a t½ of 105 min.
For B5, the Kd amounted to 1.49 nM, the koff is 0.000203 s⁻¹, the kon was 136000 M⁻¹ s⁻¹ and the t½ stood at 56.9 min.
Molecule B6 gave a Kd of 4.23 nM, a koff of 0.000435 s⁻¹, a kon of 103000 M⁻¹ s⁻¹ and a t½ of 26.6 min.
B7 came in with an equilibrium dissociation constant (Kd) of 4.57 nM, a koff of 0.000595 s⁻¹, a kon of 130000 M⁻¹ s⁻¹ and a t½ of 19.4 min.
As for B8, the kon came out at 140000 M⁻¹ s⁻¹.
In the case of B9, binding was characterised by a dissociation constant (Kd) of 0.833 nM, the koff stood at 0.000175 s⁻¹, the kon is 210000 M⁻¹ s⁻¹ and the t½ amounted to 66.1 min.
For the molecule B10, binding was characterised by a dissociation constant (Kd) of 0.664 nM, the koff worked out at 0.000152 s⁻¹, the kon was determined as 229000 M⁻¹ s⁻¹ and the t½ came out at 76.1 min.
